The DeepSol protein solubility set

test: soluble on expression in E. coli; label from the status in PepcDB or PDB records

Row | Sequence | soluble on expression in E. coli
1 | MSSPYSPREWLQLNMQQQGLLQPQTSVGQLIACLGYVQIDSINVVERAHHHVLHSRMPQYQPQMLDTALAQGEIFEYWSHAAAYLPIADYRFSLQRKQQLQNGGKHWFEPDDNAMQEVRARIRAEGPLKASDFEHTEGKNGAWWDWKPAKKALEQLFMRGELMVVRREKFQKCYDLTERVLPSHINTLAPSDSEFARHLISRYLDAHAFGSAAQIAYLRKGIKANVNQQLAAMQSQGELASFKAEGQWYFYRPELQITAAMPNRVWLLNPFDNLLIQRQRLKQWFDFDYQIEVYVPAEKRQYGYYSLAILWRDRFVGRVDVKADRQSGLLLLQQLTLEEGFDGMDEGFCSAFEATVSEYARFNICSRWKLVKANHKAFKLEHHHHHH | not soluble
2 | MHHHHHHMNSRILSTGSYLPSHIRTNADLEKMVDTSDEWIVTRSGIRERRIAAEDETVATMGFEAAKNAIEAAQINPQDIELIIVATTSHSHAYPSAACQVQGLLNIDDAISFDLAAACTGFVYALSVADQFIRAGKVKKALVIGSDLNSRKLDETDRSTVVLFGDGAGAVILEASEQEGIISTHLHASADKNNALVLAQPERGIEKSGYIEMQGNETFKLAVRELSNVVEETLLANNLDKKDLDWLVPHQANLRIITATAKKLEMDMSQVVVTLDKYANNSAATVPVALDEAIRDGRIQRGQLLLLEAFGGGWTWGSALVRF | soluble
3 | MTTARWVIDKHLQNFHILCKFAGILKTNSFISVEDKAKLSEKLEKLDLYHRRNTGKSLDATTHKIKELSFYMFGYRDVCGQVTQKFLFSPLGNLFLKHLDNNEYIQKIFLTMLWAIPFPHPYIKTDESIQLYPMRLIFKLLSDERLDCKLFSYEYIYLISFVKSADQNSYEKLVQDILVLRTCAEVKIKHQLTAENSRSHAYVNAAHEWESYFSKTLTDAGVLQKTDGKIICRLKHGKTETYRKVTSSEFSIPKQLQEFVKKLQSAYSFSEMPLNLNDSDRLKIDVIKEIYSFYPKELLEEIGELKDEAAYELLHLPRLIEQYADNNNGTEAYLFEDVLEMGFNMFYNVEAKKIGGPGNTDLECLYITQKRKFAVEAKSTKNKLSGINSGRLEDHKNKIKAIYTIVVTPRYVPAVLSDIRNCPIVIIRANTFAEFLYNCLINRSSIPEIDYRYFDEIIIKNLGKDISSEISNLTMQQFASNTTMEAYST | not soluble
4 | MYSNVQPFINSDLTNCFQSQYTEIESLLFNLLDSPVKYTKHIGGTHHFKYSTEPILDILVGVENLHDITSLDEKRLNYVGFYRLHHKYTKKVMMAKFNNFHELKQQVRLHIIQMNTQTFESYLALDYLLSTNDDIALQFNTKKHQILQHSLTIRQYEMQKQQYFEKLCKKY | not soluble
5 | TKDFSWTTSLNLSHNKNKIVKLADLPEFIDGNYIRKEGCSYATIYLREYAGVDPNDGRPMYYDNKEDENGNRSRNIVYDPNDADRVELKDIYPKLTGGLMNTFNYKFIDLSFNLSFHLGGYSYDGAMYALQDDGYTAQYNKSTELRRRWKQPGDITDVPRYVYGQEYGGWWNSSRGVHSTDHLRLKSLIVGVSAPQSWLRTIGINSARIYFSGTNLLTWAAYDQYDPELNGIVSYFTPPLKTFAFGLELKF | not soluble
6 | MAIKNAFYAQSGGVTAVINASACGVIQTARKHPDQIGKVYAGRNGIIGALKEELIDTSLESDDAIQALIHTPGGAFGSCRYKLKNISENQREYERLIEVFRAHDIGYFFYNGGGDSQDTAYKVSQLADRMGYPITCIGVPKTVDNDLPFTDCCPGFGSVAKYIATSTLEASLDIKSMCETSTKVFILEVMGRHAGWIAAAGGLAGQSEGEPPHVILFPEIPFNREKFLERVDQCVRDYGYCVVVASEGAQYEDGRFVADAGAKDAFGHTQLGGVAPALANMVKQALGHKYHWAVADYLQRAARHIASATDVEQAYAVGKAAVEMALAGKQALMPTIVRDQAKPYRWSIGEANLSEVANQEKKMPIHYITDNGFGITQDCRDYLQPLIAGESFPPFDDGLPRVAKLKNQLVEKKLRTEFELLEHHHHHH | not soluble
7 | MSLQLRSRAAFKLEFLLDRYRVVRKGDAVIEIGSSPGGWTQVLNSLARKIISIDLQEMEEIAGVRFIRCDIFKETIFDDIDRALREEGIEKVDDVVSDAMAKVSGIPSRDHAVSYQIGQRVMEIAVRYLRNGGNVLLKQFQGDMTNDFIAIWRKNFSSYKISKPPASRGSSSEIYIMFFGFKAEGHHHHHH | soluble
8 | MGSDKIHHHHHHMACGEFSGDDAAMKQTSFATAEYAGKKRQTRRERFLAEMNVVVPWARLEALIEPHYPKSGKVGRPPIGVPRMLRMYFLQQWYTLADEALEDALYDSQAMREFIGIDLGRENVPDATTLLKFRRLLEQHDLTSAILAEVNAHLTERGLLMRQGTVVDATIIAAPSSTKNEDGKRDPEMHQTKKGNQWHFGMKMHSGVDAESGLIHSVVCTAANEADVAHAHELLHGQESQVHGDSGYTGIQRRDEITTAQEEGRLRQDMDWRIAMKRGQLKAMPEGPAKAMHEWFERRKAQVRAIVEHPFHVIKNLFGYRKVSYRGISKNEARAKAHAALANLYIARRRLLAQGLSASAA | not soluble
9 | MDAHQIISFIQNSKKATPVKVYLKGDLEKIDFPSDVKTFITGNAGTIFGEWAVVEPLLEANKANIEDYVIENDRRNSAIPLLDMKNI | not soluble
10 | MGSDKIHHHHHHMKLICSKANLLKGVNIVSKAVPTRTTMAILECILIDASANEIKLMANDMELGIETIIDGTIEERGIIALDAKIFSEIVRKLPDNDVTIETDASFKTVISCEKAKFNIIGKSGDDFSYIPYVERNESIVLSQFTLKEVIRQTIFSIADNDNNKLMTGELFEIEENKLRVVSLDGHRISIRYIEMKNHYDSKKVVVPGKTLQEISKIIPGSADEDVVIYITNNHIVFEFENTTVVSRLIEGEYFKIDQMLSSDYDTKVRINKRELLDCIDRATLLVKEGDKKPIIMNITDGNMELRINSFIGSMNEDIDIDKDGKDIMIGFNPKFFIDALRVIDEEEVNLYMVNPKAPCFIKDDEGKFIYLILPVNFNTAAN | not soluble
11 | MAPILSHSIPIPSSMQANWQQMLNLLAEVLKVSATLIMRLRHHDLDVFCTSVGSDNPYQVGMTERLGTGLYCETVVNTRQILLVSNADLDPLWKDNPDLELGMRAYCGVPLQWPNGELFGSLCVTDRQARQFLSTDQQLIKTFAESIEAQLKTLYQRETLLQMNQ | not soluble
12 | MSRQCTHYGRWPQHGFTSLKKLRPQSVTSRIQPGSDVIVCAEMDEHWGYVGAKSRQRWLFYAYDRIRRTVVAHVFGERTLATLERLLSLLSAFEVVVWMTDGWPLYESRLKGKLHVISKRYTQRIERHNLNLRQHLARLVRKSLSFSKSVELHDKVIGHYLNIKHYQLEHHHHHH | not soluble
13 | MICPRCADAHIELMATSPVKGVWTVYQCQHCLYTWRDTEPLRRTSREHYPQAFRMTQKDIDDAPMVPSIPPLLAEDKR | not soluble
14 | MEFRQLKYFIAVAEAGNMAAAAKRLHVSQPPITRQMQALEADLGVVLLERSHRGIELTAAGHAFLEDARRILELAGRSGDRSRAAARGDVGELSVAYFGTPIYRSLPLLLRAFLTSTPTATVSLTHMTKDEQVEGLLAGTIHVGFSRFFPRHPGIEIVNIAQEDLYLAVHRSQSGKFGKTCKLADLRAVELTLFPRGGRPSFADEVIGLFKHAGIEPRIARVVEDATAALALTMAGAASSIVPASVAAIRWPDIAFARIVGTRVKVPISCIFRKEKQPPILARFVEHVRRSAKD | soluble
15 | MGYRIEMATRNPFDIDHKSKYLREAALEANLSHPETTPTMLTCPIDSGFLKDPVITPEGFVYNKSSILKWLETKKEDPQSRKPLTAKDLQPFPELLIIVNRFVETQTNYEKLKNRLVQNARVAARQKEYTEIPDIFLCPISKTLIKTPVITAQGKVYDQEALSNFLIATGNKDETGKKLSIDDVVVFDELYQQIKVYNFYRKREMQKNQIQPSVSSGFGFFSLNFLTSWLWGTEEKKEKTSSDMTY | not soluble
16 | MKNELICYKQMPVWTKDNLPQMFQEKHNTKVGTWGKLTVLKGKLKFYELTENGDVIAEHIFTPESHIPFVEPQAWHRVEALSDDLECTLGFYCKKEDYFSKKYNTTAIHGDVVDAAKIISPCKVLDLGCGQGRNSLYLSLLGYDVTSWDHNENSIAFLNETKEKENLNISTALYDINAANIQENYDFIVSTVVFMFLNRERVPSIIKNMKEHTNVGGYNLIVAAMSTDDVPCPLPFSFTFAENELKEYYKDWEFLEYNENMGELHKTDENGNRIKMKFATMLARKKLEHHHHHH | not soluble
17 | MAHHHHHHMSSSDLIKEDDYVFISGRGLNKIVQIKKDVTVRLGRSGAALATTLIGIRYGGVCHLDHARKKFVESDEYPDLDITEVGDGEEVKDNRDLVDDNTNQQLSNDEVAAIRRDKGLDELLQALVEKSASYRTKTNFAQEKYLKKKQKKYGTLFKVERVTVDNLAELHVPTINPSDNTSEDARCLRLRADTVALILHHSDVHHNSRVILYEKTNGVLPASLLTRMSDEGRIFQILDKNAQPSPTTAVKVLKLPLVKERWKAVPRNRGFLEGLEEPDKDSARDTAEAAEKNAAGAAAGKGLQRQDICASSTQWVKGLEARQLLLESSADSLVICDDEAPQRAVADLLPFLAFGGHIVVYSPFLEDLTGIFLALRDDCVNLQISETWYRHHQVLPKRTHPTVNMSTAAGYLLTAIKVCRNPAAPRLTAAVTAPALSATTHAGHKRSATEELNGMASKKSATREASDEGNAN | not soluble
18 | MAHHHHHHMPARGCAPVDEQIAGTDTEGRRYRSVEEMWGRELQGNLYDAKTGWYGKSLQYWGSVPATVSGVLGGMDHVHDIDIRDSRAFICCLPERGTTRALDCGAGIGRITKSLLCHLYDVTDLLEPVASMLEKAKEELEGFPVGDFFQSSMETAKLQPKTYDLIVIQWAAIYLTDEDFVAFLVRCKEALTPKGYIFFKENCASDDEFIVDKEDSSLTRSDKHYKRIFAAAGIEVVKEAMQGDWPDDLLKVKMYALR | soluble
19 | SEVERKIVSLEALYIVYDADGTVAGELLYLLRKWLGKGHCAACDITHGPRKVKPEWTILQKTGWLGVPLFNIHRDEMEPKLRSAVSCALPCVAALVDNGDYVLLLQPEDLESCKGQVSKLQEKIVEALKDFGFQVNESFTSVVTSDLSDTCPSTLDREKEEDDAVVPF | soluble
20 | MSLNPSKKKNNFNMQDPFAWQKINKQIRDANASQLDVLAKEFDTQETLPIYAYILERKNNFKKHYFIMPYYDNIKDYNKTRQALILAIARQESRFIPTAISVSYALGMMQFMPFLANHIGEKELKIPNFDQDFMFKPEIAYYFGNYHLNYLESRLKSPLFVAYAYNGGIGFTNRMLARNDMFKTGKFEPFLSMELVPYQESRIYGKKVLANYIVYRHLLNDSIKISDIFENLIQNKANDLNKEGHHHHHH | not soluble
21 | MDFLDFEKVFSFYSKATKKGFSPFFVPALEKAEEPAGNFFLDRKGNLFSIREDFTKTVLNHRKRYSPDSQIKVWYADFVYRYSGSDLVAEYQLGLEKVPRNSLDDSLEVLEIIVESASEFFEGPVIVEIGHTGVYEDLLKEIPKDLHEKVLNLIDTKNLAEIEFLSHMKKIDLSRVEKIIEDSIYRRSPEHLKTMDLPLSVREDLLSASSFLQEKFPTVSVEIDLTLARTIEEYCGLIFTIYDTSSSRLVAAGGEYTVNGEKGVGGSIFLEGKTC | soluble
22 | MKNTFVYQAEKPVIKLLQITDPHLFKDESAELLGVNTQASFAQVLKEIQQENNEFDVILATGDLVQDSSDEGYIRFVEMMKPFNKPVFWIPGNHDFQPKMAEFLNQPPMNAAKHLLLGEHWQALLLDSQVYGVPHGQLSQHQLDLLKETLGKNPERYTLVVLHHHLLPTNSAWLDQHNLRNSHELAEVLAPFTNVKAILYGHIHQEVNSEWNGYQVMATPATCIQFKPDCQYFSLDTLQPGWREIELHSDGSIRTEVKRIQQAEFFPNMQEEGY | not soluble
